This note sets out measurements from PMC12338438.

What all share (assay): fluorescence dot blot
In data set [1] the target is thrombin (UniProt P00734;P00734 328-363;364-622).
The target in data set [2] is myeloperoxidase (MPO) (UniProt P05164;P05164 165-273;279-745).
Data set [3] deals with T1, PBP2a (penicillin binding protein 2a), recombinant soluble (Staphylococcus aureus (MRSA)?, UniProt Q7DHH4 25-668).
T1 sequence: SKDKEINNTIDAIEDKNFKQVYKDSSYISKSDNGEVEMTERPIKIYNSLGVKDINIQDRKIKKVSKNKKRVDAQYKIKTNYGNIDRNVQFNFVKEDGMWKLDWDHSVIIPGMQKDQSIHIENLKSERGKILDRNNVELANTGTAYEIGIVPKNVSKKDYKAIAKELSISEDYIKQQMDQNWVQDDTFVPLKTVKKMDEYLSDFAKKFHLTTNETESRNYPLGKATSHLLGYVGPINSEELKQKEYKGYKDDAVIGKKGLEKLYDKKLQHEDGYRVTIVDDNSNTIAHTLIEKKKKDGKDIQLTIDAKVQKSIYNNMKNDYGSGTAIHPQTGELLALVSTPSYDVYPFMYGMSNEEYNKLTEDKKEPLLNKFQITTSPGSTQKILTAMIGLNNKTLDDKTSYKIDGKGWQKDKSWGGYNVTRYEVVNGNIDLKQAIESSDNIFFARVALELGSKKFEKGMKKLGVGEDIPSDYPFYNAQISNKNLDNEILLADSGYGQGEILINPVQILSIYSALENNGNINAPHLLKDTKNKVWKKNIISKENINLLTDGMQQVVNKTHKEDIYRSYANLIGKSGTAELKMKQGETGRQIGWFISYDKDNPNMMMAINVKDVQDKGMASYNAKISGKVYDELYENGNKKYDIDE

myeloperoxidase (MPO), sequence (P05164 165-273, chain 1 of 2): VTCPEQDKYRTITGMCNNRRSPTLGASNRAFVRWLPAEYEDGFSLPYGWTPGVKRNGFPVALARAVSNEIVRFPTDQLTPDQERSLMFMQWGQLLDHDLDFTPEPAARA
myeloperoxidase (MPO), sequence (P05164 279-745, chain 2 of 2): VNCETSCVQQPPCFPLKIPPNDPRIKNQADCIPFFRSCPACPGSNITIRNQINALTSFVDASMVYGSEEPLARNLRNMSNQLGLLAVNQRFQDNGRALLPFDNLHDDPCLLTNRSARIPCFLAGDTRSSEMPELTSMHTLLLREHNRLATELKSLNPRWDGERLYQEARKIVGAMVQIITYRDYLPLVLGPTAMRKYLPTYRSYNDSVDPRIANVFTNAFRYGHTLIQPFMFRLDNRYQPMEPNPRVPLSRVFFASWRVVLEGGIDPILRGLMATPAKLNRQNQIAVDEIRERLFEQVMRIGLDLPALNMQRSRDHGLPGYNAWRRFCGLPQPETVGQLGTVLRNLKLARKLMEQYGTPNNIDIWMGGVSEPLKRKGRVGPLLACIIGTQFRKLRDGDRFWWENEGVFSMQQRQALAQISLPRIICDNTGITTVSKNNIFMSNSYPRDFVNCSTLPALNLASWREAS

B1: PBP2a-Apt1T1 (ssDNA)
DNA: ATGCCATCCTACCAACCCGGTGTTCGTGTGGGTGTAGAGGGGGCGAAGGATGGC
For the molecule B1, the binding result in data set [1] and in data set [2] was “no binding” in each case. Further, the dissociation constant Kd in data set [3] is 58 ± 11 nM.

Broadly, the Kd is the concentration at which binding is half-saturated.
